Patent US8840891 (RSR, dated 2014)
Read-outs that look alike come from different tables or passages of the source.

Columns and labels:
[1] = molecular target: TSHR coated onto tubes (TSHR coated tubes) (human) (UniProt P16473); experiment: TSHR coated tubes, in presence of HBD pool
[2] = molecular target: TSHR coated onto tubes (TSHR coated tubes) (human) (UniProt P16473); experiment: TSHR coated tubes
[3] = molecular target: TSHR coated onto tubes (TSHR coated tubes) (human) (UniProt P16473); experiment: TSHR coated tubes, in the presence of HBD pool (Table 5)
[4] = molecular target: TSHR coated onto tubes (TSHR coated tubes) (human) (UniProt P16473); experiment: TSHR coated tubes, in the presence of HBD pool (Tables 4a, 4b)
[5] = molecular target: human TSHR, wild type, expressed on CHO cells (human) (UniProt P16473); experiment: cell-based or functional assay
[6] = molecular target: human TSHR with activating mutation A623I, on CHO cells (human) (UniProt P16473); experiment: cell-based or functional assay
[7] = molecular target: human TSHR, wild type, expressed on CHO cells (human) (UniProt P16473); experiment: cell-based or functional assay; remark: listed apart in the source
[8] = molecular target: wild type human TSHR (human) (UniProt P16473); experiment: cell-based or functional assay
[9] = molecular target: TSHR with Asp160 mutated to Lysine (human) (UniProt P16473); experiment: cell-based or functional assay
TSHR coated onto tubes [10] = molecular target: T1, TSHR coated onto tubes (human, UniProt P16473 21-764, limits assumed); experiment: TSHR coated tubes, competitor 125I-TSH
T1 construct: whole entry named; also called TSHR coated tubes; thyrotropin receptor

TSHR coated onto tubes [11] = molecular target: T1, TSHR coated onto tubes; experiment: TSHR coated tubes, competitor 125I-5C9 IgG
TSHR coated onto tubes [12] = molecular target: T1, TSHR coated onto tubes; experiment: TSHR coated tubes, competitor 125I-M22 IgG
[13] = molecular target: human TSHR (wild type) expressed in CHO cells (human) (UniProt P16473); experiment: cell-based or functional assay
[14] = molecular target: wild type human TSHR (human) (UniProt P16473); experiment: cell-based or functional assay; remark: listed apart in the source
[15] = molecular target: human TSHR expressed on CHO cells (human) (UniProt P16473); experiment: cell-based or functional assay

M22 IgG (human monoclonal thyroid stimulating autoantibody, hMAb TSHR1)
% binding of labelled tracer [1]: 17%
average % binding of labelled tracer [2]: 21%
% of labelled protein bound [3]: 24%
% of labelled protein bound [4]: 20%

9D33 IgG, mouse monoclonal antibody to the TSHR with blocking activity
% inhibition of basal cyclic AMP production; Exp 3; 9D33 IgG 0.001 µg/mL [5]: 12%
cyclic AMP; Exp 1; 9D33 1 µg/mL + TSH 3 ng/mL [5]: 28.7 pmol/mL
cyclic AMP; Exp 1; 9D33 10 µg/mL + TSH 3 ng/mL [5]: 23.8 pmol/mL
cyclic AMP; Exp 1; 9D33 10 µg/mL only [5]: 2.9 pmol/mL
cyclic AMP; Exp 2; 9D33 1 µg/mL + TSH 3 ng/mL [5]: 19 pmol/mL
cyclic AMP; Exp 2; 9D33 10 µg/mL + TSH 3 ng/mL [5]: 9.5 pmol/mL
cyclic AMP; Exp 2; 9D33 10 µg/mL only [5]: 1.6 pmol/mL
cyclic AMP; Exp 3; 9D33 0.01 µg/mL + TSH 3 ng/mL [5]: 47.1 pmol/mL
cyclic AMP; Exp 3; 9D33 0.1 µg/mL + TSH 3 ng/mL [5]: 35.1 pmol/mL
cyclic AMP; Exp 3; 9D33 1 µg/mL + TSH 3 ng/mL [5]: 27.8 pmol/mL
cyclic AMP; Exp 3; 9D33 10 µg/mL + TSH 3 ng/mL [5]: 13.5 pmol/mL
cyclic AMP; Exp 3; 9D33 100 µg/mL + TSH 3 ng/mL [5]: 10.5 pmol/mL
cyclic AMP; Exp 3; 9D33 100 µg/mL only [5]: 1.14 pmol/mL
cyclic AMP; Exp 4; 9D33 0.1 µg/mL + TSH 0.3 ng/mL [5]: 20.2 pmol/mL
cyclic AMP; Exp 4; 9D33 1 µg/mL + TSH 0.3 ng/mL [5]: 9.01 pmol/mL
cyclic AMP; Exp 4; 9D33 10 µg/mL + TSH 0.3 ng/mL [5]: 4.23 pmol/mL
cyclic AMP; Exp 4; 9D33 100 µg/mL + TSH 0.3 ng/mL [5]: 3.53 pmol/mL
cyclic AMP; Exp 4; 9D33 100 µg/mL only [5]: 0.99 pmol/mL
cyclic AMP; Exp 5; 9D33 0.1 µg/mL + TSH 0.3 ng/mL [5]: 14.7 pmol/mL
cyclic AMP; Exp 5; 9D33 1 µg/mL + TSH 0.3 ng/mL [5]: 6.38 pmol/mL
cyclic AMP; Exp 5; 9D33 5 µg/mL + TSH 0.3 ng/mL [5]: 3.71 pmol/mL
cyclic AMP; Exp 5; 9D33 10 µg/mL + TSH 0.3 ng/mL [5]: 3.57 pmol/mL
cyclic AMP; Exp 5; 9D33 10 µg/mL only [5]: 2.07 pmol/mL
basal cyclic AMP (buffer only 36.89); 9D33 IgG 0.001 µg/mL [6]: 29.6 pmol/mL
basal cyclic AMP (buffer only 36.89); 9D33 IgG 0.01 µg/mL [6]: 27.6 pmol/mL
basal cyclic AMP (buffer only 36.89); 9D33 IgG 0.1 µg/mL [6]: 31.8 pmol/mL
basal cyclic AMP (buffer only 36.89); 9D33 IgG 1 µg/mL [6]: 40.1 pmol/mL
cyclic AMP; Exp 1; 9D33 0.01 µg/mL + M22 3 ng/mL [7]: 47.5 pmol/mL
cyclic AMP; Exp 1; 9D33 0.1 µg/mL + M22 3 ng/mL [7]: 27.6 pmol/mL
cyclic AMP; Exp 1; 9D33 1 µg/mL + M22 3 ng/mL [7]: 5.25 pmol/mL
cyclic AMP; Exp 1; 9D33 10 µg/mL + M22 3 ng/mL [7]: 2.5 pmol/mL
cyclic AMP; Exp 1; 9D33 100 µg/mL + M22 3 ng/mL [7]: 2.13 pmol/mL
cyclic AMP; Exp 1; 9D33 100 µg/mL only [7]: 1.51 pmol/mL
cyclic AMP; Exp 2; 9D33 0.001 µg/mL + M22 3 ng/mL [7]: 79.1 pmol/mL
cyclic AMP; Exp 2; 9D33 0.01 µg/mL + M22 3 ng/mL [7]: 60.2 pmol/mL
cyclic AMP; Exp 2; 9D33 0.1 µg/mL + M22 3 ng/mL [7]: 38.7 pmol/mL
cyclic AMP; Exp 2; 9D33 1 µg/mL + M22 3 ng/mL [7]: 6.03 pmol/mL
cyclic AMP; Exp 2; 9D33 10 µg/mL + M22 3 ng/mL [7]: 0.67 pmol/mL
cyclic AMP; Exp 2; 9D33 100 µg/mL + M22 3 ng/mL [7]: 1.42 pmol/mL
cyclic AMP; Exp 2; 9D33 100 µg/mL only [7]: 1.76 pmol/mL
cyclic AMP; Exp 3; 9D33 0.001 µg/mL + M22 0.3 ng/mL [7]: 12.8 pmol/mL
cyclic AMP; Exp 3; 9D33 0.01 µg/mL + M22 0.3 ng/mL [7]: 15.2 pmol/mL
cyclic AMP; Exp 3; 9D33 0.1 µg/mL + M22 0.3 ng/mL [7]: 5.38 pmol/mL
cyclic AMP; Exp 3; 9D33 1 µg/mL + M22 0.3 ng/mL [7]: 0.83 pmol/mL
cyclic AMP; Exp 3; 9D33 10 µg/mL + M22 0.3 ng/mL [7]: 0.97 pmol/mL
cyclic AMP; Exp 3; 9D33 100 µg/mL + M22 0.3 ng/mL [7]: 1.03 pmol/mL
cyclic AMP; Exp 3; 9D33 100 µg/mL only [7]: 0.88 pmol/mL
cyclic AMP; Exp 4; 9D33 0.001 µg/mL + M22 0.3 ng/mL [7]: 43.2 pmol/mL
cyclic AMP; Exp 4; 9D33 0.01 µg/mL + M22 0.3 ng/mL [7]: 38.9 pmol/mL
cyclic AMP; Exp 4; 9D33 0.1 µg/mL + M22 0.3 ng/mL [7]: 27.6 pmol/mL
cyclic AMP; Exp 4; 9D33 1 µg/mL + M22 0.3 ng/mL [7]: 2.66 pmol/mL
cyclic AMP; Exp 4; 9D33 10 µg/mL + M22 0.3 ng/mL [7]: 1.25 pmol/mL
cyclic AMP; Exp 4; 9D33 100 µg/mL + M22 0.3 ng/mL [7]: 2 pmol/mL
cyclic AMP; Exp 4; 9D33 100 µg/mL only [7]: 2.38 pmol/mL

M22 (antibody)
cyclic AMP; M22 3 ng/mL only (fmol/cell well) [8]: 16800
cyclic AMP; M22 3 ng/mL only (repeat determination) (fmol/cell well) [8]: 16700
Mutated/wild type (%); M22 only [9]: 85%
cyclic AMP; M22 3 ng/mL only (fmol/cell well) [9]: 14300
cyclic AMP; M22 3 ng/mL only (repeat determination) (fmol/cell well) [9]: 18900

B1: 9D33 IgG (antibody, V domains shown)
VH: DVQIQQPGTELVKPGASVRLSCKASGYTFTTYWMHWVKQRPGQGLEWIGEIDPSDSYTNYNQKFKGKATLTVDKSSSTAYMHLSSLTSEDSAVYYCSRNYGSGYYFDYWGQGTTLTVSS
VL: GVEMTQSPAIMSASPGEKVTMTCSASSSVSYMHWYQQKSGTSPKRWIYDTSKLASGVPARFSGSGSGTSYSLTISSMETEDAATYYCQQWSSNPWTFGGGTKLEIK
% inhib of 125I-TSH binding at 0.01 µg/mL (TSHR coated onto tubes [10]): 8%
% inhib of 125I-TSH binding at 0.1 µg/mL (TSHR coated onto tubes [10]): 31%
% inhib of 125I-TSH binding at 1 µg/mL (TSHR coated onto tubes [10]): 55%
% inhib of 125I-TSH binding at 10 µg/mL (TSHR coated onto tubes [10]): 65%
% inhib of 125I-TSH binding at 100 µg/mL (TSHR coated onto tubes [10]): 69%
% inhib of 125I-5C9 IgG binding at 0.01 µg/mL (TSHR coated onto tubes [11]): 13%
% inhib of 125I-5C9 IgG binding at 0.1 µg/mL (TSHR coated onto tubes [11]): 29%
% inhib of 125I-5C9 IgG binding at 1 µg/mL (TSHR coated onto tubes [11]): 48%
% inhib of 125I-5C9 IgG binding at 10 µg/mL (TSHR coated onto tubes [11]): 60%
% inhib of 125I-5C9 IgG binding at 100 µg/mL (TSHR coated onto tubes [11]): 70%
% inhib of 125I-M22 IgG binding at 0.01 µg/mL (TSHR coated onto tubes [12]): 13%
% inhib of 125I-M22 IgG binding at 0.1 µg/mL (TSHR coated onto tubes [12]): 27%
% inhib of 125I-M22 IgG binding at 1 µg/mL (TSHR coated onto tubes [12]): 48%
% inhib of 125I-M22 IgG binding at 10 µg/mL (TSHR coated onto tubes [12]): 60%
% inhib of 125I-M22 IgG binding at 100 µg/mL (TSHR coated onto tubes [12]): 61%
cyclic AMP production; 9D33 IgG 100 µg/mL + M22 Fab 3 ng/mL (fmol/cell well) [13]: 1050
cyclic AMP production; 9D33 IgG 100 µg/mL + pTSH 3 ng/mL (fmol/cell well) [13]: 2220
cyclic AMP production; 9D33 IgG 100 µg/mL only (fmol/cell well) [13]: 626
cyclic AMP; 100 µg/mL 9D33 IgG only (fmol/cell well) [14]: 534
cyclic AMP; T21 + 0.001 µg/mL 9D33 IgG (fmol/cell well) [14]: 10200
cyclic AMP; T21 + 0.01 µg/mL 9D33 IgG (fmol/cell well) [14]: 10800
cyclic AMP; T21 + 0.1 µg/mL 9D33 IgG (fmol/cell well) [14]: 8720
cyclic AMP; T21 + 1 µg/mL 9D33 IgG (fmol/cell well) [14]: 1380
cyclic AMP; T21 + 10 µg/mL 9D33 IgG (fmol/cell well) [14]: 605
cyclic AMP; T21 + 100 µg/mL 9D33 IgG (fmol/cell well) [14]: 442
Cyclic AMP, serum T1 + 0.001 µg/mL 9D33 IgG (fmol/cell well) [15]: 21600
Cyclic AMP, serum T1 + 0.01 µg/mL 9D33 IgG (fmol/cell well) [15]: 19900
Cyclic AMP, serum T1 + 0.1 µg/mL 9D33 IgG (fmol/cell well) [15]: 17900
Cyclic AMP, serum T1 + 1 µg/mL 9D33 IgG (fmol/cell well) [15]: 4990
Cyclic AMP, serum T1 + 10 µg/mL 9D33 IgG (fmol/cell well) [15]: 1460
Cyclic AMP, serum T3 + 0.001 µg/mL 9D33 IgG (fmol/cell well) [15]: 12200
Cyclic AMP, serum T3 + 0.01 µg/mL 9D33 IgG (fmol/cell well) [15]: 12200
Cyclic AMP, serum T3 + 0.1 µg/mL 9D33 IgG (fmol/cell well) [15]: 12000
Cyclic AMP, serum T3 + 1 µg/mL 9D33 IgG (fmol/cell well) [15]: 7380
Cyclic AMP, serum T3 + 10 µg/mL 9D33 IgG (fmol/cell well) [15]: 4260
Cyclic AMP, serum T6 + 0.001 µg/mL 9D33 IgG (single determination) (fmol/cell well) [15]: 10300
Cyclic AMP, serum T6 + 0.01 µg/mL 9D33 IgG (fmol/cell well) [15]: 10300
Cyclic AMP, serum T6 + 0.1 µg/mL 9D33 IgG (fmol/cell well) [15]: 8700
Cyclic AMP, serum T6 + 1 µg/mL 9D33 IgG (fmol/cell well) [15]: 5450
Cyclic AMP, serum T6 + 10 µg/mL 9D33 IgG (fmol/cell well) [15]: 2260
Cyclic AMP, serum T19 + 0.001 µg/mL 9D33 IgG (fmol/cell well) [15]: 7090
Cyclic AMP, serum T19 + 0.01 µg/mL 9D33 IgG (mean of duplicate) (fmol/cell well) [15]: 5760
Cyclic AMP, serum T19 + 0.1 µg/mL 9D33 IgG (mean of duplicate) (fmol/cell well) [15]: 2390
Cyclic AMP, serum T19 + 1 µg/mL 9D33 IgG (fmol/cell well) [15]: 404
Cyclic AMP, serum T19 + 10 µg/mL 9D33 IgG (fmol/cell well) [15]: 448
Cyclic AMP, serum T20 + 0.001 µg/mL 9D33 IgG (fmol/cell well) [15]: 7510
Cyclic AMP, serum T20 + 0.01 µg/mL 9D33 IgG (fmol/cell well) [15]: 5390
Cyclic AMP, serum T20 + 0.1 µg/mL 9D33 IgG (fmol/cell well) [15]: 5360
Cyclic AMP, serum T20 + 1 µg/mL 9D33 IgG (mean of duplicate) (fmol/cell well) [15]: 980
Cyclic AMP, serum T20 + 10 µg/mL 9D33 IgG (fmol/cell well) [15]: 204
